Reference: PMC6155126 (Nature Communications, 2018)

Molecular target: FLAG-Pol λ-WT (human, UniProt Q9UGP5 1-575)
Assay: cell-based or functional assay

B1: FLAG-XRCC4 (natural protein, human, UniProt Q13426 1-336, looked up)
chain: MERKISRIHLVSEPSITHFLQVSWEKTLESGFVITLTDGHSAWTGTVSESEISQEADDMAMEKGKYVGELRKALLSGAGPADVYTFNFSKESCYFFFEKNLKDVSFRLGSFNLEKVENPAEVIRELICYCLDTIAENQAKNEHLQKENERLLRDWNDVQGRFEKCVSAKEALETDLYKRFILVLNEKKTKIRSLHNKLLNAAQEREKDIKQEGETAICSEMTADRDPVYDESTDEESENQTDLSGLASAAVSKDDSIISSLDVTDIAPSRKRRQRMQRNLGTEPKMAPQENQLQEKENSRPDSSLPETSKKEHISAENMSLETLRNSSPEDLFDEI
- Pol λ-dependent gap filling synthesis on a 5nt-gapped dsDNA (33-mer), stimulation by added protein over a concentration series: ≤ 10 fold
